Laboratory results taken from patent US10159726B2, “Peptides, combination of peptides and scaffolds for use in immunotherapeutic treatment of various cancers” (Immatics Biotechnologies GmbH, priority 2015, dated 2018).

Biological target: HLA-A*02 (Homo sapiens, UniProt P04439, D140Y/D185E/D98H/E176V/E277Q/G131W/G231S/I119V/I121R/I166T/I218V/N151K/N90K/P208A/P217A/Q86G/Q94H/R138H/R169H)
Assay: MHC binding assay, UV-ligand exchange with beta2m ELISA, HLA-A*02
Details: peptide exchange yield
Excerpt: Candidate peptides for T cell based therapies according to the present invention were further tested for their MHC binding capacity (affinity). The individual peptide-MHC complexes were produced by UV-ligand exchange, where a UV-sensitive peptide is cleaved upon UV-irradiation, and exchanged with the peptide of interest as analyzed. Only peptide candidates that can effectively bind and stabilize the peptide-receptive MHC molecules prevent dissociation of the MHC complexes. To determine the yield of the exchange reaction, an ELISA was performed based on the detection of the light chain (β2m) of stabilized MHC complexes. The assay was performed as generally described in Rodenko et al. (Rodenko et al., 2006).
96 well MAXISorp plates (NUNC) were coated over night with 2 ug/ml streptavidin in PBS at room temperature, washed 4× and blocked for 1 h at 37° C. in 2% BSA containing blocking buffer. […] Peptide-MHC monomers of the UV-exchange reaction were diluted 100 fold in blocking buffer. Samples were incubated for 1 h at 37° C., washed four times, incubated with 2 ug/ml HRP conjugated anti-β2m for 1 h at 37° C., washed again and detected with TMB solution that is stopped with […]. Absorption was measured at 450 nm. Candidate peptides that show a high exchange yield (preferably higher than 50%, most preferred higher than 75%) are generally preferred for a generation and production of antibodies or fragments thereof, and/or T cell receptors or fragments thereof, as they show sufficient avidity to the MHC molecules and prevent dissociation of the MHC complexes.

Row | Substance | MHC class I binding score, Peptide exchange
1 | 330 (FLWPKEVEL; listed as Homo sapiens) [compound 330] | +++ (50%-75% = +++)
2 | 36 (KLYGIEIEV; listed as Homo sapiens) [compound 36] | ++++ (>=75% = ++++)
3 | 48 (TLDHKPVTV; listed as Homo sapiens) [compound 48] | ++ (20%-49% = ++)
4 | 83 (ELLEYLPQL; listed as Homo sapiens) [compound 83] | +++ (50%-75% = +++)
5 | 32 (ILADEAFFSV; listed as Homo sapiens) [compound 32] | +++ (50%-75% = +++)
6 | 1 (PLWGKVFYL; listed as Homo sapiens) [compound 1] | ++ (20%-49% = ++)
7 | 87 (YLTEVFLHVV; listed as Homo sapiens) [compound 87] | +++ (50%-75% = +++)
8 | 22 (MLSDLTLQL; listed as Homo sapiens) [compound 22] | ++++ (>=75% = ++++)
9 | 327 (SIGDIFLKY; listed as Homo sapiens) [compound 327] | +++ (50%-75% = +++)
10 | 23 (AQTVVVIKA; listed as Homo sapiens) [compound 23] | + (<20% = +)
11 | 328 (SVDSAPAAV; listed as Homo sapiens) [compound 328] | ++ (20%-49% = ++)
12 | 92 (LLRGPPVARA; listed as Homo sapiens) [compound 92] | ++ (20%-49% = ++)
13 | 45 (VLGPTPELV; listed as Homo sapiens) [compound 45] | +++ (50%-75% = +++)
14 | 63 (TLSSERDFAL; listed as Homo sapiens) [compound 63] | + (<20% = +)
15 | 50 (EYALLYHTL; listed as Homo sapiens) [compound 50] | ++ (20%-49% = ++)
16 | 324 (AIFDFCPSV; listed as Homo sapiens) [compound 324] | ++++ (>=75% = ++++)
17 | 19 (TLLPTVLTL; listed as Homo sapiens) [compound 19] | +++ (50%-75% = +++)
18 | 337 (KVLGKIEKV; listed as Homo sapiens) [compound 337] | +++ (50%-75% = +++)
19 | 62 (SLFNQEVQI; listed as Homo sapiens) [compound 62] | +++ (50%-75% = +++)
20 | 91 (SSLEPQIQPV; listed as Homo sapiens) [compound 91] | + (<20% = +)
21 | 69 (GIYDGILHSI; listed as Homo sapiens) [compound 69] | +++ (50%-75% = +++)

Row | Substance | MHC class I binding score, Peptide exchange
22 | 56 (KILDLTRVL; listed as Homo sapiens) [compound 56] | ++ (20%-49% = ++)
23 | 51 (LLLDGDFTL; listed as Homo sapiens) [compound 51] | +++ (50%-75% = +++)
24 | 79 (SLVPLQILL; listed as Homo sapiens) [compound 79] | ++++ (>=75% = ++++)
25 | 335 (VLLAAGPSAA; listed as Homo sapiens) [compound 335] | ++ (20%-49% = ++)
26 | 52 (ELLSSIFFL; listed as Homo sapiens) [compound 52] | +++ (50%-75% = +++)
27 | 90 (GAVAEEVLSSI; listed as Homo sapiens) [compound 90] | + (<20% = +)
28 | 334 (GRADALRVL; listed as Homo sapiens) [compound 334] | +++ (50%-75% = +++)
29 | 49 (LLDESKLTL; listed as Homo sapiens) [compound 49] | +++ (50%-75% = +++)
30 | 37 (ALINDILGELVKL; listed as Homo sapiens) [compound 37] | +++ (50%-75% = +++)
31 | 321 (SLWFKPEEL; listed as Homo sapiens) [compound 321] | +++ (50%-75% = +++)
32 | 13 (VLRDNIQGI; listed as Homo sapiens) [compound 13] | +++ (50%-75% = +++)
33 | 31 (ALSDETKNNWEV; listed as Homo sapiens) [compound 31] | ++++ (>=75% = ++++)
34 | 84 (FLEEEITRV; listed as Homo sapiens) [compound 84] | +++ (50%-75% = +++)
35 | 14 (LLDHLSFINKI; listed as Homo sapiens) [compound 14] | ++ (20%-49% = ++)
36 | 27 (KVFGDLDQV; listed as Homo sapiens) [compound 27] | +++ (50%-75% = +++)
37 | 4 (ELAEIVFKV; listed as Homo sapiens) [compound 4] | +++ (50%-75% = +++)
38 | 8 (KLGPFLLNA; listed as Homo sapiens) [compound 8] | +++ (50%-75% = +++)
39 | 42 (VLSPFILTL; listed as Homo sapiens) [compound 42] | +++ (50%-75% = +++)
40 | 80 (TLDEYLTYL; listed as Homo sapiens) [compound 80] | +++ (50%-75% = +++)
41 | 53 (SLLSHVIVA; listed as Homo sapiens) [compound 53] | +++ (50%-75% = +++)
42 | 38 (KMQEDLVTL; listed as Homo sapiens) [compound 38] | +++ (50%-75% = +++)

Row | Substance | MHC class I binding score, Peptide exchange
43 | 70 (GLFSQHFNL; listed as Homo sapiens) [compound 70] | +++ (50%-75% = +++)
44 | 44 (GLLWQIIKV; listed as Homo sapiens) [compound 44] | ++ (20%-49% = ++)
45 | 93 (SLLTQPIFL; listed as Homo sapiens) [compound 93] | +++ (50%-75% = +++)
46 | 66 (FITDFYTTV; listed as Homo sapiens) [compound 66] | +++ (50%-75% = +++)
47 | 325 (RLLPKVQEV; listed as Homo sapiens) [compound 325] | ++ (20%-49% = ++)
48 | 82 (VLLRVLIL; listed as Homo sapiens) [compound 82] | ++ (20%-49% = ++)
49 | 12 (GLIYEETRGV; listed as Homo sapiens) [compound 12] | ++ (20%-49% = ++)
50 | 339 (VLGPGPPPL; listed as Homo sapiens) [compound 339] | ++ (20%-49% = ++)
51 | 33 (LLLPLLPPLSPSLG; listed as Homo sapiens) [compound 33] | +++ (50%-75% = +++)
52 | 340 (SVAKTILKR; listed as Homo sapiens) [compound 340] | ++ (20%-49% = ++)
53 | 81 (VLFLGKLLV; listed as Homo sapiens) [compound 81] | ++ (20%-49% = ++)
54 | 18 (YVLNEEDLQKV; listed as Homo sapiens) [compound 18] | +++ (50%-75% = +++)
55 | 25 (IQADDFRTL; listed as Homo sapiens) [compound 25] | ++ (20%-49% = ++)
56 | 40 (SLLALPQDLQA; listed as Homo sapiens) [compound 40] | +++ (50%-75% = +++)
57 | 16 (HLYNNEEQV; listed as Homo sapiens) [compound 16] | ++ (20%-49% = ++)
58 | 59 (ALTKILAEL; listed as Homo sapiens) [compound 59] | +++ (50%-75% = +++)
59 | 5 (SLFGQEVYC; listed as Homo sapiens) [compound 5] | +++ (50%-75% = +++)
60 | 331 (AIWKELISL; listed as Homo sapiens) [compound 331] | +++ (50%-75% = +++)
61 | 75 (ILDNVKNLL; listed as Homo sapiens) [compound 75] | +++ (50%-75% = +++)
